Measured values: patent US20100143349A1 (Pfizer, published 2010)
Residue numbers refer to the chain shown, from its start.

B1: 3A6 scFv (scFv)
scFv: DIQMTQSPSSLSASVGDRVTITCRASQDVGIYVNWFQQKPGKAPRRLIYRATNLADGVPSRFSGSRSGTDFTLTISSLQPEDFATYYCLEFDEHPLTFGGGTKVEIKDGGGSGGGGSGGGGSSEVQLVESGGGLVQPGGSLRLSCAASGFTFNNYWMTWVRQAPGKGLEWVASIDNSGDNTYYPDSVKDRFTISRDNAKNSLYLQMNSLRAEDTAVYYCARGGDILVSLDVWGQGTLVTVSS
B2: 3B2 scFv (scFv)
scFv: B1 scFv with S228G, V231Y
B3: 3D2 scFv (scFv)
scFv: B1 scFv with L226R, V231H
B4: 3G5 scFv (scFv)
scFv: B1 scFv with V227D, D230P, V231Y
B5: 6B2 scFv (scFv)
scFv: B1 scFv with L226R, S228G
B6: 6B6 scFv (scFv)
scFv: B1 scFv with L226I, V227I, V231W
B7: 6C2 scFv (scFv)
scFv: B1 scFv with L226K, V231R
B8: 3B7 scFv (scFv)
scFv: B1 scFv with E90Q, E93S, L226T, V227T, S228G, L229F, V231Y
B9: 3B9 scFv (scFv)
scFv: B1 scFv with E90Q, E93N, L226T, V227T, S228G, L229F, V231Y
B10: 3C6 scFv (scFv)
scFv: B1 scFv with L226V, S228G, V231H
B11: 3D5 scFv (scFv)
scFv: B1 scFv with L226K, S228G, V231L
B12: 3D6 scFv (scFv)
scFv: B1 scFv with L226R, S228M, V231L
B13: 3E8 scFv (scFv)
scFv: B1 scFv with E90Q, E93V, L226T, V227T, S228G, L229F, V231Y
B14: 3G3 scFv (scFv)
scFv: B1 scFv with L226K, V231H
B15: 3G8 scFv (scFv)
scFv: B1 scFv with E90Q, F91Y, E93A, L226T, V227T, S228G, L229F, V231Y
B16: 6A10 scFv (scFv)
scFv: B1 scFv with E90Q, E93A, L226T, V227T, S228G, L229F, V231Y
B17: 6A12 scFv (scFv)
scFv: B1 scFv with E90Q, F91Y, E93A, L226T, V227T, S228G, L229F, V231Y
B18: 6C10 scFv (scFv)
scFv: B1 scFv with E90Q, L226T, V227T, S228G, L229F, V231Y
B19: 6C11 scFv (scFv)
scFv: B1 scFv with E90Q, F91Y, E93A, L226T, V227T, S228G, L229F, V231Y
B20: 6E3 scFv (scFv)
scFv: B1 scFv with L226R, V231F
B21: 6E5 scFv (scFv)
scFv: B1 scFv with L226R, S228M

Target: T1, hRAGE-Fc (human, UniProt Q15109 23-342, biotin label in the selections and HTRF assays)
T1 construct: extracellular domain; also called biotin labeled hRAGE-Fc; Biotin-labeled RAGE-Fc; not shown: Fc part
Experiment: IC50 of parental M4 scFv over IC50 of clone, HTRF competition
Experimental: (§1) Increases in binding to RAGE antigen were detected with the aid of a competition assay using parental XT-M4 antibody. Both phage display and ribosome display libraries were selected for affinity improved variants by incubating with biotin labeled hRAGE-Fc, recovering binding clones using streptavidin magnetic beads and washing away non binding variants. Sequential rounds of selection were carried on decreasing antigen concentrations to drive the preferential recovery of higher affinity variants. Clones recovered after selection were subsequently screening for improved binding to hRAGE-Fc using HTRF. This is an assay that measures the decrease in fluorescence upon binding of parental europium cryptate-labeled XT-M4 to RAGE in the presence of competing test scFv antibodies. In these assays, periplasmic preparations of scFv were prepared from bacterial cultures and added in increasing concentrations to a combination of parental antibody and antigen. The ability of the scFV to compete with parental XT-M4 antibody to bind to Biotin-labeled RAGE-Fc was determined. In the presence of avidin-XL665 complex labeled XT-M4 bound to biotinylated RAGE-FC was detected by Fluorescence. Increasing amounts of scFv that competed with the XT-M4 for binding to biotinylated-RAGE-Fc was detected as a decrease in fluorescence. A sequential process of screening was used to focus in on a smaller number of clones with the greatest competition in HTRF assay

T1 sequence (Q15109 23-342): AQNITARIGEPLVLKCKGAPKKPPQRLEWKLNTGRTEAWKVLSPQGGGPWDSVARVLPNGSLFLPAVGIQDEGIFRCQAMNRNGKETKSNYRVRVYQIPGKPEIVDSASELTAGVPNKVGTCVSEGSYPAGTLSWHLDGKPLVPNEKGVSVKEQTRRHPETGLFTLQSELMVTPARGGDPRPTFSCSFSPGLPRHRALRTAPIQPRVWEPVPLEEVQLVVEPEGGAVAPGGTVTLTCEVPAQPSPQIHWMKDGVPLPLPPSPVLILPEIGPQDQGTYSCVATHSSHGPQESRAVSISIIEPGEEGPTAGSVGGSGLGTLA

Row | Binder | Fold gain scFv (hRAGE) [fold]
1 | B1 | 70
2 | B2 | 35.8
3 | B3 | 26
4 | B4 | 37.9
5 | B5 | 18.6
6 | B6 | 50.7
7 | B7 | 48.2

Target: T1, hRAGE-Fc
Experiment: HTRF competition, scFv vs labelled parental XT-M4 (competitor) on hRAGE
Experimental: as §1

Row | Binder | IC50 [nM]
8 | B1 | 0.47
9 | B2 | 0.92
10 | B3 | 1.27
11 | B4 | 0.87
12 | B5 | 1.77
13 | B6 | 0.65
14 | B7 | 0.73

Target: T1, hRAGE-Fc
Experiment: HTRF competition, scFv vs labelled parental XT-M4 (competitor) on biotin hRAGE-Fc
Experimental: as §1

Row | Binder | IC50 [nM]
15 | B1 | 0.474
16 | B2 | 0.917
17 | B8 | 7.35
18 | B9 | 10.6
19 | B10 | 1.26
20 | B3 | 1.27
21 | B11 | 3
22 | B12 | 2.92
23 | B13 | 7.21
24 | B14 | 1.44
25 | B4 | 0.87
26 | B15 | 8.08
27 | B16 | 6.94
28 | B17 | 8.27
29 | B5 | 1.77
30 | B6 | 0.645
31 | B7 | 0.731
32 | B18 | 7.38
33 | B19 | 9.03
34 | B20 | 1.75
35 | B21 | 2.25
